# According to patent publication US20100184108:
# T1: 15-residue histone H3 trimethylated Lys9 (H3K9me3) substrate peptide, H2N-ARTKQTARK(tri-methyl)STGGKA-amide
# T1 chain: ARTKQTARKSTGGKA
# B1: catalytic domain, residues 1-350, of the human histone demethylase JMJD2A (protein)
# chain: MASESETLNPSARIMTFYPTMEEFRNFSRYIAYIESQGAHRAGLAKVVPPKEWKPRASYDDIDDLVIPAPIQQLVTGQSGLFTQYNIQKKAMTVREFRKIANSDKYCTPRYSEFEELERKYWKNLTFNPPIYGADVNGTLYEKHVDEWNIGRLRTILDLVEKESGITIEGVNTPYLYFGMWKTSFAWHTEDMDLYSINYLHFGEPKSWYSVPPEHGKRLERLAKGFFPGSAQSCEAFLRHKMTLISPLMLKKYGIPFDKVTQEAGEFMITFPYGYHAGFNHGFNCAESTNFATRRWIEYGKQAVLCSCRKDMVKISMDVFVRKFQPERYKLWKAGKDNTVIDHTLPTPEA
# Biological target: T1, 15-residue histone H3 trimethylated …
protein,measurement,value
B1,"fluorescence of the formaldehyde-Luminos reagent adduct (demethylase activity, positive control assay)","57,000±400 relative fluorescence units"
same,fold reduction in the fluorescence signal when a component is omitted,"Omission of 2-OG, the H3K9me3 peptide, or JMJD2A results in a ˜30-fold reduction in the fluorescence signal"
same,signal to background ratio (positive control reactions against negative control assays),signal to background ratio of 20:1 or greater
